Assays:
[1] = molecular target: human somatostatin receptor SSTR1 (human); assay: radioligand binding to CHO cells transfected with human SSTR1, gamma counting
[2] = molecular target: mouse somatostatin receptor SSTR2 (mouse); assay: radioligand binding to CHO cells transfected with mouse SSTR2, gamma counting
[3] = molecular target: human somatostatin receptor SSTR1 (human); assay: radioligand binding to CHO cells transfected with human SSTR1 in the presence of 1 µM somatostatin-14
[4] = molecular target: mouse somatostatin receptor SSTR2 (mouse); assay: radioligand binding to CHO cells transfected with mouse SSTR2 in the presence of 1 µM somatostatin-14

control binding (radiolabeled ligand bound in the absence of inhibitor) [1]: 1420 cpm | control binding (radiolabeled ligand bound in the absence of inhibitor) [2]: 2080 cpm | non-specific binding (radiolabeled ligand bound in the presence of 1 µM somatostatin-14) [3]: 225 cpm | non-specific binding (radiolabeled ligand bound in the presence of 1 µM somatostatin-14) [4]: 225 cpm
Substance: [125I]iodo-Tyr11-somatostatin-14 (from UniProt P61278) (peptide)
